Results on 17 molecules are retold here after patent publication US10800813 (Bicycle, dated 2020).

Numbered stars: 1 amine (or outer) side, 2 acyl side, 3 side chain; on linkers, the order of the positions; unused ones are H or OH. Bridge positions count the residues as written; N and C are the ends. Square brackets hold non-standard residues; d marks the D form. Ends that are not written are not given here. Phe(4-guanidino) = N=C(N)Nc1ccc(C[C@H](N)C(=O)O)cc1; TBMB = c1c(C[*:1])cc(C[*:3])cc1C[*:2]; NMeR = CN[C@@H](CCCNC(=N)N)C(=O)O; hArg = N=C(N)NCCCC[C@H](N)C(=O)O; Dpg = CCCC(N)(CCC)C(=O)O; Aze = O=C(O)[C@@H]1CCN1; Abu = CC[C@H](N)C(=O)O; βAla = NCCC(=O)O

First the molecules themselves.
B1: Ac-(06-34-18) Phe2 Aze3 Tyr4 HomoArg5 (peptide)
peptide: Ac-CSF[Aze]Y[hArg]CLHQDLC-NH2
modifications: linker 1-7-13 via TBMB
B2: Ac-(06-34-18) Phe2 Aze3Tyr4 NMeArg5 (peptide)
peptide: Ac-CSF[Aze]Y[NMeR]CLHQDLC-NH2
modifications: linker 1-7-13 via TBMB
SMILES: CC(=O)N[C@H]1CSCc2cc3cc(c2)CSC[C@H](NC(=O)[C@H](CCCNC(=N)N)N(C)C(=O)[C@H](Cc2ccc(O)cc2)NC(=O)[C@@H]2CCN2C(=O)[C@H](Cc2ccccc2)NC(=O)[C@H](CO)NC1=O)C(=O)N[C@@H](CC(C)C)C(=O)N[C@@H](Cc1c[nH]cn1)C(=O)N[C@@H](CCC(N)=O)C(=O)N[C@@H](CC(=O)O)C(=O)N[C@@H](CC(C)C)C(=O)N[C@H](C(N)=O)CSC3
B3: Ac-(06-34-18) Phe2 Aze3Tyr4 4GuanPhe5 (peptide)
peptide: Ac-CSF[Aze]Y[Phe(4-guanidino)]CLHQDLC-NH2
modifications: linker 1-7-13 via TBMB
B4: 3B2 (peptide)
peptide: ACFKNCRVNCA
modifications: linker 2-6-10 via TBMB
notes: also called PK119
B5: 06-94 (peptide)
peptide: ACFKQCRVNCA
modifications: linker 2-6-10 via TBMB
notes: also called PK118
B6: 3A3 (peptide)
peptide: ACFPKCRVACA
modifications: linker 2-6-10 via TBMB
notes: also called PK122
B7: 3B9 (peptide)
peptide: ACFDPCRVICA
modifications: linker 2-6-10 via TBMB
notes: also called PK124
B8: 06-64 (3x3 peptide of Table 3) (peptide)
peptide: ACFNKCRVNCA
modifications: linker 2-6-10 via TBMB; not fully specified (N-terminus, C-terminus)
notes: also called PK121
B9: 06-71 (peptide)
peptide: ACFYKCRVNCA
modifications: linker 2-6-10 via TBMB; not fully specified (N-terminus, C-terminus)
notes: also called PK120
B10: Ac-(06-34-18) Aba4 (peptide)
peptide: Ac-CSWP[Abu]RCLHQDLC-NH2
modifications: linker 1-7-13 via TBMB
SMILES: CC[C@@H]1NC(=O)[C@@H]2CCCN2C(=O)[C@H](Cc2c[nH]c3ccccc23)NC(=O)[C@H](CO)NC(=O)[C@@H](NC(C)=O)CSCc2cc3cc(c2)CSC[C@H](NC(=O)[C@H](CCCNC(=N)N)NC1=O)C(=O)N[C@@H](CC(C)C)C(=O)N[C@@H](Cc1c[nH]cn1)C(=O)N[C@@H](CCC(N)=O)C(=O)N[C@@H](CC(=O)O)C(=O)N[C@@H](CC(C)C)C(=O)N[C@H](C(N)=O)CSC3
B11: Ac-(06-34-18) β-Ala4 (peptide)
peptide: Ac-CSWP[βAla]RCLHQDLC-NH2
modifications: linker 1-7-13 via TBMB
SMILES: CC(=O)N[C@H]1CSCc2cc3cc(c2)CSC[C@H](NC(=O)[C@H](CCCNC(=N)N)NC(=O)CCNC(=O)[C@@H]2CCCN2C(=O)[C@H](Cc2c[nH]c4ccccc24)NC(=O)[C@H](CO)NC1=O)C(=O)N[C@@H](CC(C)C)C(=O)N[C@@H](Cc1c[nH]cn1)C(=O)N[C@@H](CCC(N)=O)C(=O)N[C@@H](CC(=O)O)C(=O)N[C@@H](CC(C)C)C(=O)N[C@H](C(N)=O)CSC3
B12: Ac-(06-34-18) Dpg1 (peptide)
peptide: Ac-C[Dpg]WPARCLHQDLC-NH2
modifications: linker 1-7-13 via TBMB
SMILES: CCCC1(CCC)NC(=O)[C@@H](NC(C)=O)CSCc2cc3cc(c2)CSC[C@H](NC(=O)[C@H](CCCNC(=N)N)NC(=O)[C@H](C)NC(=O)[C@@H]2CCCN2C(=O)[C@H](Cc2c[nH]c4ccccc24)NC1=O)C(=O)N[C@@H](CC(C)C)C(=O)N[C@@H](Cc1c[nH]cn1)C(=O)N[C@@H](CCC(N)=O)C(=O)N[C@@H](CC(=O)O)C(=O)N[C@@H](CC(C)C)C(=O)N[C@H](C(N)=O)CSC3
B13: Ac-(06-34-18) D-Arg5 (peptide)
peptide: Ac-CSWPA[dR]CLHQDLC-NH2
modifications: linker 1-7-13 via TBMB
SMILES: CC(=O)N[C@H]1CSCc2cc3cc(c2)CSC[C@H](NC(=O)[C@@H](CCCNC(=N)N)NC(=O)[C@H](C)NC(=O)[C@@H]2CCCN2C(=O)[C@H](Cc2c[nH]c4ccccc24)NC(=O)[C@H](CO)NC1=O)C(=O)N[C@@H](CC(C)C)C(=O)N[C@@H](Cc1c[nH]cn1)C(=O)N[C@@H](CCC(N)=O)C(=O)N[C@@H](CC(=O)O)C(=O)N[C@@H](CC(C)C)C(=O)N[C@H](C(N)=O)CSC3
B14: Ac-(06-34-18) D-Ala4 (peptide)
peptide: Ac-CSWP[dA]RCLHQDLC-NH2
modifications: linker 1-7-13 via TBMB
SMILES: CC(=O)N[C@H]1CSCc2cc3cc(c2)CSC[C@H](NC(=O)[C@H](CCCNC(=N)N)NC(=O)[C@@H](C)NC(=O)[C@@H]2CCCN2C(=O)[C@H](Cc2c[nH]c4ccccc24)NC(=O)[C@H](CO)NC1=O)C(=O)N[C@@H](CC(C)C)C(=O)N[C@@H](Cc1c[nH]cn1)C(=O)N[C@@H](CCC(N)=O)C(=O)N[C@@H](CC(=O)O)C(=O)N[C@@H](CC(C)C)C(=O)N[C@H](C(N)=O)CSC3
B15: Ac-(06-34-18) D-Trp2 (peptide)
peptide: Ac-CS[dW]PARCLHQDLC-NH2
modifications: linker 1-7-13 via TBMB
SMILES: CC(=O)N[C@H]1CSCc2cc3cc(c2)CSC[C@H](NC(=O)[C@H](CCCNC(=N)N)NC(=O)[C@H](C)NC(=O)[C@@H]2CCCN2C(=O)[C@@H](Cc2c[nH]c4ccccc24)NC(=O)[C@H](CO)NC1=O)C(=O)N[C@@H](CC(C)C)C(=O)N[C@@H](Cc1c[nH]cn1)C(=O)N[C@@H](CCC(N)=O)C(=O)N[C@@H](CC(=O)O)C(=O)N[C@@H](CC(C)C)C(=O)N[C@H](C(N)=O)CSC3
B16: Ac-(06-34-18) D-Pro3 (peptide)
peptide: Ac-CSW[dP]ARCLHQDLC-NH2
modifications: linker 1-7-13 via TBMB
SMILES: CC(=O)N[C@H]1CSCc2cc3cc(c2)CSC[C@H](NC(=O)[C@H](CCCNC(=N)N)NC(=O)[C@H](C)NC(=O)[C@H]2CCCN2C(=O)[C@H](Cc2c[nH]c4ccccc24)NC(=O)[C@H](CO)NC1=O)C(=O)N[C@@H](CC(C)C)C(=O)N[C@@H](Cc1c[nH]cn1)C(=O)N[C@@H](CCC(N)=O)C(=O)N[C@@H](CC(=O)O)C(=O)N[C@@H](CC(C)C)C(=O)N[C@H](C(N)=O)CSC3
B17: Ac-(06-34-18) D-Cys2 (peptide)
peptide: Ac-CSWPAR[dC]LHQDLC-NH2
modifications: linker 1-7-13 via TBMB
SMILES: CC(=O)N[C@H]1CSCc2cc3cc(c2)CSC[C@@H](NC(=O)[C@H](CCCNC(=N)N)NC(=O)[C@H](C)NC(=O)[C@@H]2CCCN2C(=O)[C@H](Cc2c[nH]c4ccccc24)NC(=O)[C@H](CO)NC1=O)C(=O)N[C@@H](CC(C)C)C(=O)N[C@@H](Cc1c[nH]cn1)C(=O)N[C@@H](CCC(N)=O)C(=O)N[C@@H](CC(=O)O)C(=O)N[C@@H](CC(C)C)C(=O)N[C@H](C(N)=O)CSC3

The target of one assay is T1, human plasma Kallikrein (human, UniProt P03952 20-638, limits assumed).
T1 construct: also called hPK; human PK
T1 sequence (P03952 20-638 limits assumed): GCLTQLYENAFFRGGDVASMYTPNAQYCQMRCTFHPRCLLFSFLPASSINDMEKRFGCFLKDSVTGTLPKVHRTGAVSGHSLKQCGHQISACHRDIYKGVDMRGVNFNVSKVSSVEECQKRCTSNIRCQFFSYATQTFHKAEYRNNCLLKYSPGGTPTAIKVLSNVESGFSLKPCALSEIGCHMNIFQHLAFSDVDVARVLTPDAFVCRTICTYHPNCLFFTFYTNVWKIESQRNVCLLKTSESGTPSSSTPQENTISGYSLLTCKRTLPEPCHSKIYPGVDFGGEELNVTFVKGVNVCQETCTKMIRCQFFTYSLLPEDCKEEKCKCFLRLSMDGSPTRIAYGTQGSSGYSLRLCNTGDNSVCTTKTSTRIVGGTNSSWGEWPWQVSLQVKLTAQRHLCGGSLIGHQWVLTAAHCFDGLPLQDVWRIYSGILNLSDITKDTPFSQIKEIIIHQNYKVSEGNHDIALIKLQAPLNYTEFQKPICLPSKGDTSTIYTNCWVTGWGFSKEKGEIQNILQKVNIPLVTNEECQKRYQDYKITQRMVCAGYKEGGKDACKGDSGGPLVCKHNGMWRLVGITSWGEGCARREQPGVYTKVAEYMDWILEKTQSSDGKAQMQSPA
In words: enzyme inhibition assay.
On to B1, for which the Ki stood at 0.12 nM.

For B2, the Ki was found to be 0.97 nM.

With B3, the Ki stood at 0.36 nM.

The target of the next assay is T1, human plasma Kallikrein. In words: enzyme inhibition assay. This is another data set of the same source.
With B4, affinity was put at a Ki of 9 nM.

In turn, B5 registered a Ki of 0.7 nM.

Molecule B6 had a Ki of 43.1 nM.

Take B7: the Ki was found to be 90.8 nM.

Molecule B8 returned an inhibition constant (Ki) of 4.8 nM.

As to B9, the inhibitory constant (Ki) turned out to be 15.2 nM.

A further assay has as its target T1, human plasma Kallikrein. In words: enzyme inhibition assay. The source holds these as a separate data set.
The molecule B10 registered an inhibition constant Ki of 0.07 nM.

In turn, B11 returned a Ki of 17400 nM.

Consider B12, for which the affinity, expressed as Ki, was 1.09 nM.

The target of the next assay is T1, human plasma Kallikrein. As to the kind of experiment: enzyme inhibition assay. The source holds these as a separate data set.
In the case of B13, the “fold loss in potency against Ac-06-34-18(TMB)-NH2” value came to 300 fold.

For B14, the “fold reduction of affinity against Ac-06-34-18(TMB)-NH2” value came out at 7000 fold.

B15: the “fold loss in potency against Ac-06-34-18(TMB)-NH2” value was 45000 fold.

A further assay deals with T1, human plasma Kallikrein. As to the kind of experiment: enzyme inhibition assay. This is another data set of the same source.
In the case of B13, the inhibitory constant (Ki) came out at 52 nM.

As for B16, the Ki came out at 680 nM.

As to B17, the inhibition constant (Ki) came out at 234 nM.

In the case of B14, the inhibitory constant (Ki) stood at 1200 nM.

For B15, the affinity, expressed as Ki, was 7560 nM.
